Laboratory results published in the supplement of paper PMC9112550, “Optimization of the antimicrobial peptide Bac7 by deep mutational scanning” (BMC Biology, 2022).

What follows are sequences tested on Escherichia coli TOP10 (assay: shrunken log2 fold change of peptide-encoding DNA abundance (4.5 h post-induction vs induction); higher = less antimicrobial activity (less host growth inhibition)). Settings: time post-induction: 4.5 h; library: site-saturation at positions 5, 18, 19, 20.
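Also: peptides expressed intracellularly from a pBAD plasmid library in pooled LB shake-flask culture, induced with 0.3% L-arabinose, DNA abundance read by NGS, three biological replicates, DESeq2 with apeglm shrinkage.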

First: RRIRQRPPRLPRPRPRPMMVPRP
Second: RRIRGRPPRLPRPRPRPIPHPRP
The “shrunken log2 fold change” value of the first is lower: -0.0145 for the first, 0.196 for the second.

Going from RRIRVRPPRLPRPRPRPYPSPRP to RRIRMRPPRLPRPRPRPHNWPRP, the “shrunken log2 fold change” value rises from -0.422 to 0.249.

First: RRIRSRPPRLPRPRPRPPNGPRP
Second: RRIRLRPPRLPRPRPRPVDSPRP
The “shrunken log2 fold change” value of the first is higher: 0.36 for the first, 0.0702 for the second.

RRIRHRPPRLPRPRPRPSFPPRP and RRIRERPPRLPRPRPRPMMLPRP are within 0.2 log units of each other in “shrunken log2 fold change” value: -0.207 for the first, -0.0415 for the second.

RRIRWRPPRLPRPRPRPYDMPRP and RRIRQRPPRLPRPRPRPCFNPRP are within 0.2 log units of each other in “shrunken log2 fold change” value: 0.0118 for the first, -0.161 for the second.

RRIRKRPPRLPRPRPRPPTEPRP and RRIRPRPPRLPRPRPRPDLMPRP are within 0.2 log units of each other in “shrunken log2 fold change” value: 0.395 for the first, 0.303 for the second.

RRIRLRPPRLPRPRPRPKWCPRP and RRIRARPPRLPRPRPRPGCQPRP are within 0.2 log units of each other in “shrunken log2 fold change” value: 0.0847 for the first, 0.168 for the second.

RRIRCRPPRLPRPRPRPLKTPRP and RRIRIRPPRLPRPRPRPWKQPRP are within 0.2 log units of each other in “shrunken log2 fold change” value: -0.0197 for the first, -0.00674 for the second.

First: RRIRIRPPRLPRPRPRPRMIPRP
Second: RRIRLRPPRLPRPRPRPNLNPRP
The “shrunken log2 fold change” value of the first is higher: 2.5 for the first, -0.716 for the second.

RRIRRRPPRLPRPRPRPYEYPRP and RRIRVRPPRLPRPRPRPHVPPRP are within 0.2 log units of each other in “shrunken log2 fold change” value: -0.206 for the first, -0.044 for the second.

RRIRTRPPRLPRPRPRPMVVPRP and RRIRDRPPRLPRPRPRPPMSPRP are within 0.2 log units of each other in “shrunken log2 fold change” value: 0.0636 for the first, 0.137 for the second.

RRIRPRPPRLPRPRPRPMFRPRP and RRIRHRPPRLPRPRPRPNNCPRP are within 0.2 log units of each other in “shrunken log2 fold change” value: -0.119 for the first, -0.0202 for the second.

First: RRIRPRPPRLPRPRPRPSTHPRP
Second: RRIRARPPRLPRPRPRPVRGPRP
The “shrunken log2 fold change” value of the first is lower: -0.203 for the first, 0.945 for the second.

Compared with RRIRLRPPRLPRPRPRPTSNPRP, RRIRQRPPRLPRPRPRPEDGPRP is higher in “shrunken log2 fold change” value: -0.576 for the first, 0.154 for the second.

RRIRFRPPRLPRPRPRPFYNPRP and RRIRTRPPRLPRPRPRPWMAPRP are within 0.2 log units of each other in “shrunken log2 fold change” value: -0.468 for the first, -0.295 for the second.

First: RRIRYRPPRLPRPRPRPPKMPRP
Second: RRIRCRPPRLPRPRPRPHNQPRP
The “shrunken log2 fold change” value of the first is higher: 0.28 for the first, -0.565 for the second.

RRIRNRPPRLPRPRPRPQNPPRP and RRIRQRPPRLPRPRPRPTYQPRP are within 0.2 log units of each other in “shrunken log2 fold change” value: -0.117 for the first, -0.109 for the second.

Compared with RRIRIRPPRLPRPRPRPYCQPRP, RRIRFRPPRLPRPRPRPISPPRP is higher in “shrunken log2 fold change” value: -1.1 for the first, -0.211 for the second.

RRIRSRPPRLPRPRPRPVIIPRP and RRIRCRPPRLPRPRPRPNTRPRP are within 0.2 log units of each other in “shrunken log2 fold change” value: -0.254 for the first, -0.267 for the second.

RRIRKRPPRLPRPRPRPATIPRP and RRIRIRPPRLPRPRPRPWKIPRP are within 0.2 log units of each other in “shrunken log2 fold change” value: 0.00392 for the first, -0.0311 for the second.

RRIRPRPPRLPRPRPRPYCHPRP and RRIRERPPRLPRPRPRPHLRPRP are within 0.2 log units of each other in “shrunken log2 fold change” value: -0.241 for the first, -0.173 for the second.

Going from RRIRHRPPRLPRPRPRPWFHPRP to RRIRMRPPRLPRPRPRPNIVPRP, the “shrunken log2 fold change” value rises from -0.525 to 0.0335.

RRIRSRPPRLPRPRPRPMLRPRP and RRIRVRPPRLPRPRPRPATWPRP are within 0.2 log units of each other in “shrunken log2 fold change” value: 0.123 for the first, 0.218 for the second.

Going from RRIRFRPPRLPRPRPRPHTSPRP to RRIRNRPPRLPRPRPRPYRAPRP, the “shrunken log2 fold change” value rises from -0.907 to -0.183.

First: RRIRMRPPRLPRPRPRPNEYPRP
Second: RRIRPRPPRLPRPRPRPQSAPRP
The “shrunken log2 fold change” value of the first is lower: -0.0432 for the first, 1.69 for the second.

RRIRWRPPRLPRPRPRPELFPRP and RRIRSRPPRLPRPRPRPEFQPRP are within 0.2 log units of each other in “shrunken log2 fold change” value: -0.0123 for the first, 0.161 for the second.

First: RRIRTRPPRLPRPRPRPGLTPRP
Second: RRIRIRPPRLPRPRPRPVRVPRP
The “shrunken log2 fold change” value of the first is lower: -0.0361 for the first, 0.458 for the second.

Compared with RRIRVRPPRLPRPRPRPKWSPRP, RRIRRRPPRLPRPRPRPKRCPRP is lower in “shrunken log2 fold change” value: 0.0979 for the first, -0.131 for the second.

RRIRSRPPRLPRPRPRPPDCPRP and RRIRARPPRLPRPRPRPLHYPRP are within 0.2 log units of each other in “shrunken log2 fold change” value: -0.046 for the first, -0.174 for the second.

First: RRIRWRPPRLPRPRPRPFEPPRP
Second: RRIRNRPPRLPRPRPRPYAMPRP
The “shrunken log2 fold change” value of the first is higher: 1.2 for the first, 0.0743 for the second.

Going from RRIRFRPPRLPRPRPRPCWSPRP to RRIRYRPPRLPRPRPRPSQMPRP, the “shrunken log2 fold change” value falls from -0.443 to -0.706.

RRIRIRPPRLPRPRPRPDSLPRP and RRIRHRPPRLPRPRPRPSVEPRP are within 0.2 log units of each other in “shrunken log2 fold change” value: -0.163 for the first, -0.2 for the second.

First: RRIRRRPPRLPRPRPRPKPHPRP
Second: RRIRHRPPRLPRPRPRPKLFPRP
The “shrunken log2 fold change” value of the first is higher: 0.536 for the first, 0.0628 for the second.

Compared with RRIRYRPPRLPRPRPRPRVLPRP, RRIRARPPRLPRPRPRPLKHPRP is higher in “shrunken log2 fold change” value: -0.322 for the first, -0.0681 for the second.

Going from RRIRFRPPRLPRPRPRPYGWPRP to RRIRTRPPRLPRPRPRPKWLPRP, the “shrunken log2 fold change” value rises from -0.0451 to 0.247.

First: RRIRTRPPRLPRPRPRPENTPRP
Second: RRIRCRPPRLPRPRPRPQHCPRP
The “shrunken log2 fold change” value of the first is higher: -0.0831 for the first, -0.287 for the second.

First: RRIRIRPPRLPRPRPRPKDIPRP
Second: RRIRPRPPRLPRPRPRPAQDPRP
The “shrunken log2 fold change” value of the first is lower: -1.25 for the first, 0.0233 for the second.

RRIRYRPPRLPRPRPRPREIPRP was tested, and the “shrunken log2 fold change” value was -0.442.
